The values below come from US7960155B1, “Cytochrome p450 monooxygenases and their use for oxidizing organic compounds” (BASF Aktiengesellschaft, priority 1999, dated 2011).

The subject of this data set is blue pigment (indigo/indirubin) production. Particulars: 2-liter flask containing 300 ml of TB medium for the triple mutant.

B1: WT: wild-type cytochrome P450 monooxygenase BM-3 from Bacillus megaterium (SEQ ID NO:2) (protein, listed as Bacillus megaterium)
chain: TIKEMPQPKTFGELKNLPLLNTDKPVQALMKIADELGEIFKFEAPGRVTRYLSSQRLIKEACDESRFDKNLSQALKFVRDFAGDGLFTSWTHEKNWKKAHNILLPSFSQQAMKGYHAMMVDIAVQLVQKWERLNADEHIEVPEDMTRLTLDTIGLCGFNYRFNSFYRDQPHPFITSMVRALDEAMNKLQRANPDDPAYDENKRQFQEDIKVMNDLVDKIIADRKASGEQSDDLLTHMLNGKDPETGEPLDDENIRYQIITFLIAGHETTSGLLSFALYFLVKNPHVLQKAAEEAARVLVDPVPSYKQVKQLKYVGMVLNEALRLWPTAPAFSLYAKEDTVLGGEYPLEKGDELMVLIPQLHRDKTIWGDDVEEFRPERFENPSAIPQHAFKPFGNGQRACIGQQFALHEATLVLGMMLKHFDFEDHTNYELDIKETLTLKPEGFVVKAKSKKIPLGGIPSPSTEQSAKKVRKKAENAHNTPLLVLYGSNMGTAEGTARDLADIAMSKGFAPQVATLDSHAGNLPREGAVLIVTASYNGHPPDNAKQFVDWLDQASADEVKGVRYSVFGCGDKNWATTYQKVPAFIDETLAAKGAENIADRGEADASDDFEGTYEEWREHMWSDVAAYFNLDIENSEDNKSTLSLQFVDSAADMPLAKMHGAFSTNVVASKELQQPGSARSTRHLEIELPKEASYQEGDHLGVIPRNYEGIVNRVTARFGLDASQQIRLEAEEEKLAHLPLAKTVSVEELLQYVELQDPVTRTQLRAMAAKTVCPPHKVELEALLEKQAYKEQVLAKRLTMLELLEKYPACEMKFSEFIALLPSIRPRYYSISSSPRVDEKQASITVSVVSGEAWSGYGEYKGIASNYLAELQEGDTITCFISTPQSEFTLPKDPETPLIMVGPGTGVAPFRGFVQARKQLKEQGQSLGEAHLYFGCRSPHEDYLYQEELENAQSEGIITLHTAFSRMPNQPKTYVQHVMEQDGKKLIELLDQGAHFYICGDGSQMAPAVEATLMKSYADVHQVSEADARLWLQQLEEKGRYAKDVWAG
Turning to B1, the “blue pigment production in culture” value is on record as “does not have the ability to produce the blue indigo-containing pigment”.
